# Biological target: lysozyme (chicken (hen egg white), UniProt P00698 19-147)
# Assay: visible aggregation assay (photograph texture); 3 ul of 25 nM aptamer + 10 ul of lysozyme; indirect read-out, lysozyme alone gave no aggregate; lysozyme in ultrapure water, no buffer or salt stated; 25 nM aptamer (3 ul) heated at 70 C for 3 min before use; 20 C, 70-90% relative humidity, about 1 min on
# Conditions: protein: commercial; 3' hairpin (predicted only)
# Sequence of lysozyme (P00698 19-147): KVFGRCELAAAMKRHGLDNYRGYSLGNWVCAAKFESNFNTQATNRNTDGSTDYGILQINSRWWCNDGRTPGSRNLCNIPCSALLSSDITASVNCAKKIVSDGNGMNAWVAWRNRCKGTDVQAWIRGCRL
binder,measurement,value
ATCTACGAATTCATCAGGGCTAAAGAGTGCAGAGTTACTTAG (ssDNA) [anti-Lys aptamer (Ellington)],binding result,binds

# From paper PMC7939288, “An apta-aggregation based machine learning assay for rapid quantification of lysozyme through texture parameters”
